Assay [1] deals with MLL4 D-site peptide (human). Kind of assay: peptide or protein array; 17-mer peptides linked by the C-terminus to a nitrocellulose membrane, in duplicate, probed with [35S]-methionine labelled JNK1; PhosphorImager signal normalised to MKK7-D2 = 100%.
In assay [2] the target is Gli3 D-site peptide (human). Described as above.
Assay [3] addresses Neil1 D-site peptide (human). Described as above.
Assay [4] addresses 35S-radiolabeled JNK1, P45983-2. Kind of assay: peptide array probed with 35S-labeled JNK1, Phosphorimager quantification. The note with it: read off a plot.

With “35S-radiolabeled JNK1 (from UniProt P45983-2 1-384) (enzyme)”, the binding normalised to the MKK7-D2 positive control in assay [1] was 161 % of MKK7-D2; in assay [2], 193 % of MKK7-D2; in assay [3] it was 198 % of MKK7-D2. Take “MKK4 D-site peptide (positive control) MKK4 Mut (alanine substitutions at the critical basic and hydrophobic residues; not printed)”: the response (% of MKK7-D2 binding) in assay [4] (parent: est. 520) is 28. As to “MKK7-D2 peptide (positive control) MKK7 Mut (alanine substitutions at the critical basic and hydrophobic residues; not printed)”, the percent of parent (% of MKK7-D2 binding) in assay [4] (parent: est. 100) turned out to be 12.

Values taken from publication PMC2928751.
